Stoichiometry N data for one substance are collected here from paper PMC9414842.

This experiment has as its target human large conductance voltage- and calcium-activated potassium channel (hBK) (human) (UniProt Q12791). Nature of the experiment: cryo-EM structure; random spherically constrained (RSC) single-particle cryo-EM of hBK reconstituted into POPC liposomes, without Ca2+ (20 mM HEPES pH 7.4, 150 mM KCl, 2 mM EDTA); map with C2 symmetry at 3.48 Å.

human large conductance voltage- and calcium-activated potassium channel (hBK), Q12791 1-1236 (natural protein; other documents disagree on this pair), sequence (Q12791 whole entry): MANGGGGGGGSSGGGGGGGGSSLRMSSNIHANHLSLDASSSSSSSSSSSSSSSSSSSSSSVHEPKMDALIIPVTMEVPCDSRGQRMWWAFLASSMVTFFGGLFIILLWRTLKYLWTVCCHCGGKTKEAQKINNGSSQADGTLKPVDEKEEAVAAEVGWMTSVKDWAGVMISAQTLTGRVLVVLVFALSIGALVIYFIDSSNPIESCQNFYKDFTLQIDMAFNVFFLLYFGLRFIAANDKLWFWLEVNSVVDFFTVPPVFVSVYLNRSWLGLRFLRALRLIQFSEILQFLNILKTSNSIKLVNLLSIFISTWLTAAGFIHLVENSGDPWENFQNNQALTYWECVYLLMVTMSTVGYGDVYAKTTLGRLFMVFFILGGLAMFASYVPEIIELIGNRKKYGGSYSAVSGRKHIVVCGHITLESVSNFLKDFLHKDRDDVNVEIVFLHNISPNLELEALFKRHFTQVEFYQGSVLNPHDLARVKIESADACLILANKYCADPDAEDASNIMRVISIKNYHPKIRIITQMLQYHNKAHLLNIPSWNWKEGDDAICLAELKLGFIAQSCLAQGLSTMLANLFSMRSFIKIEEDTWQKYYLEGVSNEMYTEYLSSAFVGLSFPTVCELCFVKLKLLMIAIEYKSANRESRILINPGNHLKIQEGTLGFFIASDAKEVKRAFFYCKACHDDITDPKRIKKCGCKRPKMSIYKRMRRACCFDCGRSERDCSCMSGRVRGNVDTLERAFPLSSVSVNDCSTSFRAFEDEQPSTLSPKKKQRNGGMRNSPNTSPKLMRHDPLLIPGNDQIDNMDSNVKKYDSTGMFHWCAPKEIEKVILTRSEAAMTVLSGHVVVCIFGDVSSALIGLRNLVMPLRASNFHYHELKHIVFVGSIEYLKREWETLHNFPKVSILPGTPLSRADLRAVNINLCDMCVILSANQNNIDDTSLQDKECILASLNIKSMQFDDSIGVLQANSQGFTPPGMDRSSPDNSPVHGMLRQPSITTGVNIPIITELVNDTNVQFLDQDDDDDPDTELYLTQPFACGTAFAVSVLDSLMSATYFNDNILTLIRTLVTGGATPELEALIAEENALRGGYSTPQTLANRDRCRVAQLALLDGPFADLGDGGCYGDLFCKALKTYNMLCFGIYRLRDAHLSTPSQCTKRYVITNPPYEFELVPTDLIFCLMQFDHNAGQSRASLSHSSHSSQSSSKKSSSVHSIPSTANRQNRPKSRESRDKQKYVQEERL

As for “human large conductance voltage- and calcium-activated potassium channel (hBK), Q12791 1-1236 (natural protein; other documents disagree on this pair)”, the stoichiometry N was 4.
